# In patent US20050054571A1, “Antimicrobial proteins from the SPO1 bacteriophage” (Rice University, priority 2003, published 2005):
# “Also recorded” adds a separate entry of the source. Like-named read-outs stand apart in the source and are kept apart here.
# Key:
# Assay type in all cases: cell-based
# E. coli = assay: Effect of induced expression of cloned SPO1 genes on growth and viability of E. coli (liquid medium and colony formation); conditions: cloned gene(s) expressed from IPTG-inducible promoter, * = lethality conclusion based on failure to clone, ** = data not conclusive
# From the text: (§1) For analysis of antimicrobial activity we first cloned most of the 24 host-takeover genes (genes 37-60) singly or in multiple gene combinations into a B. subtilis/E. coli shuttle vector (pPW19) under control of an IPTG-inducible promoter (Wei and Stewart, 1993). […] These remaining genes are being cloned using expression vectors with more tightly regulated promoters, such as pJONEX4 (Sayers, 1996), pET101, or pX (Kim et al., 1996). The transformed E. coli and B. subtilis were used to determine the antimicrobial activity, if any, of the cloned genes. The effect of induction on bacterial growth and viability was measured both in liquid medium and by colony formation. Definitive establishment of lethality was shown by loss of the ability to form colonies even after removal from the inducing agent. Indication of probable lethality was based on total inability to form colonies under inducing conditions.
# bacteria = assay: Toxicity or lethality of expression of cloned SPO1 genes, bacterium not given
# From the text: as §1
# In cells growing in liquid medium, expression of the cloned gene 44 was induced at time 0. At subsequent times, the number of cells remaining viable was measured by plating in the absence of inducer. More than 99% of the cells were killed within three hours.
# B. subtilis = assay: Effect of induced expression of cloned SPO1 genes on growth and viability of B. subtilis (liquid medium and colony formation); conditions: cloned gene(s) expressed from IPTG-inducible promoter, * = lethality conclusion based on failure to clone, ** = data not conclusive
# From the text: as §1
molecule,measurement,setting,value
"Gene 37: product of SPO1 host-takeover gene 37, SEQ ID NO: 1 (MSDVIIPFLTSAVTAFIVAYLLDRWYIKRRR; SPO1 Bacteriophage)","Lethality, E. coli",E. coli,Lethal *
same,toxicity or lethality of expression,bacteria,lethal
"Gene 58: product of SPO1 host-takeover gene 58, SEQ ID NO: 22 (MTLAGYRVDSCNGCGKAYLVGESHDRKKCAECASK; SPO1 Bacteriophage)","Lethality, E. coli",E. coli,Mildly toxic
same,"Lethality, B. subtilis",B. subtilis,No effect
"Gene 40: product of SPO1 host-takeover gene 40, SEQ ID NO: 4 (protein, SPO1 Bacteriophage) MHIYTYWGLKYVPSNSTMVAKEGDLILLGNEVHKVVKVLHRFRNITDLQITNWKGTETRYNLHVTEYKVLVPYDTHKEENEAMSDSLITHNGKDYVLCKIPARVGDLIRTEDKRVWEVLQKSKDGLVLYNEEKGEQRSAVYSEIGPYHVLVPRDTDTHTPTREELAAVIMNKAFTRTETQDSQEDTGTHKGLGLTGTDLYHSLRDLDAKVQSGYYTATENEEDVKSEIEATKKHMKAVKESGKTVNDYRKEENTKRCKLKALTNKFNRLFLKSVIDTDSLQVGKAYLIGGRDMKNVHGLYTGTTFDQQHANFLIVETDRMHRTLTVSAEQLFAEERHIVDIEKRVEQTED","Lethality, E. coli",E. coli; listed as 40,only mildly toxic
same,"Lethality, B. subtilis",B. subtilis; listed as 40,only mildly toxic; also recorded: Inconsistent
"Gene 42: product of SPO1 host-takeover gene 42, SEQ ID NO: 6 (protein, SPO1 Bacteriophage) MRKFVTTLTASPRNKKVGNHRLEISPFVSLRRYYYFNTAICIENPVTREFAIDDSYGSLSTNQNCAQYRQYFSLGGYKEVSLEEIHAV","Lethality, E. coli",E. coli; listed as 42,no toxic effect
same,"Lethality, B. subtilis",B. subtilis; listed as 42,no toxic effect
"Gene 47: product of SPO1 host-takeover gene 47, SEQ ID NO: 11 (protein, SPO1 Bacteriophage) MDWTKMTFMGTVDEVKEIWNGLEEAGRLYAVWLSDDHVYGIVDVNEEGLFCLGWVSDISPESLQNMLGGGAELFESYEDVLSEHGGSIAIRVEV","Lethality, E. coli",E. coli; listed as 47,little or no effect; also recorded: No effect
same,"Lethality, B. subtilis",B. subtilis; listed as 47,little or no effect; also recorded: No effect
"Gene 43: product of SPO1 host-takeover gene 43, SEQ ID NO: 7 (protein, SPO1 Bacteriophage) MIQLSERQQDLLQVAEKYEQCHIEFYTAQSRLFGTEIMGEVVKTSLGTLKIAHPEEDLFEVALAYLASKKDILTAQERKDVLFYIQNNLC","Lethality, E. coli",E. coli; listed as 43,too inconsistent to permit any conclusion; also recorded: Indeterminate
same,"Lethality, B. subtilis",B. subtilis; listed as 43,too inconsistent to permit any conclusion; also recorded: Indeterminate
"Gene 38: product of SPO1 host-takeover gene 38, SEQ ID NO: 2 (protein, SPO1 Bacteriophage) MSVQIKHGNKTFVVDPSGDVKEGSYVLYLYEYRLGEVDVGRVSEVANDGRLYLDGPGVIVTLDQPFILLKEVVEEEEDEDDRIDAEFHNDPLLRKLENTTEKLTPEETQLAQWTTMTRVFSHDLKKGIPYAIKHKNSGNILYGLYSGLLNPVTALFRHLNEESKISIEQLKSGLIEIYEVVEDEEESIWN","Lethality, E. coli",E. coli,Highly toxic
same,"Lethality, B. subtilis",B. subtilis,No effect **
"Gene 48: product of SPO1 host-takeover gene 48, SEQ ID NO: 12 (protein, SPO1 Bacteriophage) MPYSKITVPVLVGEGLTEWDVIDVMRETHPPTVEDQYHYHTFDSMQNRTIFVLENPLYPDVDKIPEKVLGIAVDALEDMLDNVPVEDLPVTEEQGNVKRFTTKLASIVFDVFLIIPDFVSVTAKEE","Lethality, E. coli",E. coli; listed as 48,strongly toxic but not lethal; also recorded: Strongly Toxic
same,"Lethality, B. subtilis",B. subtilis; listed as 48,strongly toxic but not lethal; also recorded: Strongly Toxic
"Gene 57: product of SPO1 host-takeover gene 57, SEQ ID NO: 21 (protein, SPO1 Bacteriophage) MTLFIAGVTLEEVREATVSALFVKLEQEKKALYLGAGSEDSLNLCKSTLDKVQEDYPLDDMEKDYLRDLLQFWLSRLFLGDGFEGEIPDSSEDLRRTATTAFTYTAAIRHYCM","Lethality, E. coli",E. coli,Mildly toxic
same,"Lethality, B. subtilis",B. subtilis,No effect
"Gene 52: product of SPO1 host-takeover gene 52, SEQ ID NO: 16 (protein, SPO1 Bacteriophage) MTHFISIATYIYALVSAGFIGGWHDEESWIKDTEYEHGGYHMIIDTPAVVNYSLEYGNYQWIFQKYMKEGKVTVERFYRNSLDIPKEILTDEALAFIKDWDENANEYELHAGEGVLYFKYEGEEKGYVIPMAYAGEIMFVPDEDAEKALEIINSQKKY","Lethality, E. coli",E. coli; listed as 52,Lethal
"Gene 39: product of SPO1 host-takeover gene 39, SEQ ID NO: 3 (protein, SPO1 Bacteriophage) MELNLDIYVDYKDKRYKAEGYYGPSVGDLVLIFMDMELEGATVQEVARIEGSEIHLRTPNGNEPSYRYMGQYLILKPYGSSDPRGDILVHEDVQYVRVDAQAMPGDLIEALEPNKLPFSGKRFKYRPAVLEVEYVLTKDEQVLQLENGKSYSGAYRVLIPRMGVLPPKTHIYTTHKHVFMEDVFVLGNSYELSSPNDVEMTPIHAVFTGFSKNRDEAIFVNPYYNDDGVTGTMITVSDLLTGKWDITPLVPKKGV","Lethality, E. coli",E. coli,Lethal
same,toxicity or lethality of expression,bacteria; listed as 39,lethal effect
"Gene 46: product of SPO1 host-takeover gene 46, SEQ ID NO: 10 (protein, SPO1 Bacteriophage) MMTEDQKFKYLTKIEELEAGCFSDWTKEDITGDLKYLKKGIIEESIELIRAVNGLTYSEELHDFTQEIIEELDISPL","Lethality, E. coli",E. coli,Lethal
same,"Lethality, B. subtilis",B. subtilis,Mildly Toxic
same,toxicity or lethality of expression,bacteria,lethal but with diminished efficiency
"Gene 45: product of SPO1 host-takeover gene 45, SEQ ID NO: 9 (protein, SPO1 Bacteriophage) MMMDKQVEEVKKHYPIVEDWSVIVARKEDDCMTVTDAVPFILAGYKNVSYEMDDIVVLCSEPIGLTWEDVRFLKNHEGSVSFEEIGYEDKAMVYHVDLG","Lethality, E. coli",E. coli,Toxic
same,"Lethality, B. subtilis",B. subtilis,Mildly Toxic
same,toxicity or lethality of expression,bacteria,toxic but not lethal
"Gene 41: product of SPO1 host-takeover gene 41, SEQ ID NO: 5 (protein, SPO1 Bacteriophage) MEKLPNTVVKVHGEGMESKLFPRKLHKDTNSILREDLVSACQEHIEALVEGMIAHGDGRKVAELDTSTQYYWHLKLVEYTPIPGRTQHYVDLVDGTNPDVCYFSLCDCSGDNITDRRWSNMVKRLQNPEEDIAKTLRCYFRQDAGMPSWIEYPQ","Lethality, E. coli",E. coli; listed as 41,only a mild effect; also recorded: Mildly Toxic
same,"Lethality, B. subtilis",B. subtilis; listed as 41,lethal; also recorded: Lethal *
